Columns and labels:
[1] = biological target: CH505 TF chimeric SOSIP.III trimer (CH505TFchim.6R.SOSIP.664V4.1) (HIV-1 (CH505 gp120 / BG505 gp41 chimera)); assay: negative stain EM; 1 to 1 ratio of CH103 and gp140
[2] = biological target: CH505 w020.14 gp120 (HIV-1); assay: ELISA, gp120 on plate
[3] = biological target: CH505 M11 gp120 (HIV-1); assay: ELISA, gp120 on plate
[4] = biological target: CH505 transmitted/founder (TF) gp120 (HIV-1); assay: ELISA, gp120 on plate
[5] = biological target: CH505 transmitted/founder (TF) gp120 (HIV-1); assay: SPR
[6] = biological target: CH505 TF chimeric SOSIP.III trimer (CH505TFchim.6R.SOSIP.664V4.1) (HIV-1 (CH505 gp120 / BG505 gp41 chimera)); assay: kinetics, method not named (FIG. 69); reference CH505 TF gp120
[7] = biological target: HIV-1 CH0505TF.S365P Env on Env-pseudotyped virus produced in 293S GnTI- cells (HIV-1); assay: cell-based or functional assay
[8] = biological target: HIV-1 CH0505TF.G458Y Env on Env-pseudotyped virus produced in 293S GnTI-/- cells (Man5-enrichment) (HIV-1); assay: cell-based or functional assay
[9] = biological target: HIV-1 CH0505TF.S365P Env on Env-pseudotyped virus produced in 293T cells (HIV-1); assay: cell-based or functional assay
[10] = biological target: HIV-1 CH0505TF.N280D Env on Env-pseudotyped virus produced in 293S GnTI- cells (HIV-1); assay: cell-based or functional assay
[11] = biological target: HIV-1 CH0505TF.N280D Env on Env-pseudotyped virus produced in 293T cells (HIV-1); assay: cell-based or functional assay
[12] = biological target: HIV-1 CH0505TF Env on Env-pseudotyped virus produced in 293S/GnTI-/- cells (Man5-enrichment) (HIV-1); assay: cell-based or functional assay
[13] = biological target: HIV-1 CH0505TF (CH505 transmitted/founder) Env on Env-pseudotyped virus produced in 293T cells (HIV-1); assay: cell-based or functional assay
[14] = biological target: HIV-1 CH0505TF.G458Y Env on Env-pseudotyped virus produced in 293T cells (HIV-1); assay: cell-based or functional assay
[15] = biological target: CH0505TF Env, Env-pseudotyped virus produced in 293T cells (HIV-1); assay: cell-based or functional assay
[16] = biological target: CH0505TF.G458Y Env, pseudotyped virus produced in 293S GnTI- cells (HIV-1); assay: cell-based or functional assay
[17] = biological target: CH0505TF.G458Y Env, Env-pseudotyped virus produced in 293T cells (HIV-1); assay: cell-based or functional assay
[18] = biological target: HIV-1 Env 426c, Env-pseudotyped virus produced in 293T cells (HIV-1 clade C strain 426c); assay: cell-based or functional assay
[19] = biological target: HIV-1 Env 426c.TM4 (S278R.G471S.N460D.N463D), Env-pseudotyped virus produced in 293T cells (HIV-1 clade C strain 426c); assay: cell-based or functional assay
[20] = biological target: HIV-1 Env 426c.TM (N276D.N460D.N463D), Env-pseudotyped virus produced in 293S GnTI- cells (Man5-enriched) (HIV-1 clade C strain 426c); assay: cell-based or functional assay
[21] = biological target: CH0505TF.gly4.G458Y Env, pseudotyped virus produced in 293S GnTI- cells (HIV-1); assay: cell-based or functional assay
[22] = biological target: HIV-1 Env 426c.DM (N460D.N463D), Env-pseudotyped virus produced in 293T cells (HIV-1 clade C strain 426c); assay: cell-based or functional assay
[23] = biological target: HIV-1 Env 426c.SM (N276D), Env-pseudotyped virus produced in 293T cells (HIV-1 clade C strain 426c); assay: cell-based or functional assay
[24] = biological target: HIV-1 Env 426c.TM (N276D.N460D.N463D), Env-pseudotyped virus produced in 293T cells (HIV-1 clade C strain 426c); assay: cell-based or functional assay
[25] = biological target: CH0505.w4.3 Env, Env-pseudotyped virus produced in 293T cells (HIV-1); assay: cell-based or functional assay
[26] = biological target: CH0505TF.gly4 Env, Env-pseudotyped virus produced in 293T cells (HIV-1); assay: cell-based or functional assay
[27] = biological target: HIV-1 Env 426c.SM (N276D), Env-pseudotyped virus produced in 293S GnTI- cells (Man5-enriched) (HIV-1 clade C strain 426c); assay: cell-based or functional assay
[28] = biological target: CH0505TF.gly4 Env, pseudotyped virus produced in 293S GnTI- cells (HIV-1); assay: cell-based or functional assay
[29] = biological target: CH0505TF.gly4.G458Y Env, pseudotyped virus produced in 293T cells (HIV-1); assay: cell-based or functional assay
[30] = biological target: CH0505TF.gly3.461 Env, pseudotyped virus produced in 293S GnTI- cells (HIV-1); assay: cell-based or functional assay
[31] = biological target: HIV-1 Env 426c, Env-pseudotyped virus produced in 293S GnTI- cells (Man5-enriched) (HIV-1 clade C strain 426c); assay: cell-based or functional assay
[32] = biological target: HIV-1 Env 426c.DM (N460D.N463D), Env-pseudotyped virus produced in 293S GnTI- cells (Man5-enriched) (HIV-1 clade C strain 426c); assay: cell-based or functional assay
[33] = biological target: CH0505TF Env, pseudotyped virus produced in 293S GnTI- cells (HIV-1); assay: cell-based or functional assay
[34] = biological target: CH0505TF.gly3.276 Env, pseudotyped virus produced in 293S GnTI- cells (HIV-1); assay: cell-based or functional assay
[35] = biological target: CH0505.w4.3 Env, pseudotyped virus produced in 293S GnTI- cells (HIV-1); assay: cell-based or functional assay
[36] = biological target: HIV-1 Env 426c.TM4 (S278R.G471S.N460D.N463D), Env-pseudotyped virus produced in 293S GnTI- cells (Man5-enriched) (HIV-1 clade C strain 426c); assay: cell-based or functional assay
[37] = biological target: CH0505TF.gly3.461 Env, Env-pseudotyped virus produced in 293T cells (HIV-1); assay: cell-based or functional assay
[38] = biological target: CH0505TF.gly3.197 Env, Env-pseudotyped virus produced in 293T cells (HIV-1); assay: cell-based or functional assay
[39] = biological target: CH0505TF.gly3.197 Env, pseudotyped virus produced in 293S GnTI- cells (HIV-1); assay: cell-based or functional assay
[40] = biological target: CH0505TF.gly3.276 Env, Env-pseudotyped virus produced in 293T cells (HIV-1); assay: cell-based or functional assay

CH103 Fab showed a Fabs bound per trimer (Fab per trimer) [1] of 3.
With “CH103 lineage unmutated common ancestor (UCA) (antibody)” the log AUC [2] was 0.3 log AUC, the log AUC [3] was 2.6 log AUC and the log AUC [4] was 3.5 log AUC. For the same substance, the Kd [5] was 200 nM and the fold improvement of the off-rate against CH505 TF gp120 [6] was 10 fold.
In the case of CH235.12 (antibody), the IC50 (µg/ml) in TZM-bl [7] is reported as 0.01 µg/mL, the IC50 (µg/ml) in TZM-bl [8] is reported as under 0.02 µg/mL and the IC50 (µg/ml) in TZM-bl [9] is reported as 0.03 µg/mL. For the same substance, the IC50 (µg/ml) in TZM-bl [10] was 0.02 µg/mL, the IC50 (µg/ml) in TZM-bl [11] was 0.06 µg/mL and the IC50 (µg/ml) in TZM-bl [12] was 0.02 µg/mL. For the same substance, the IC50 (µg/ml) in TZM-bl [13] was 0.04 µg/mL, the IC50 (µg/ml) in TZM-bl [14] was 0.01 µg/mL and the IC50 (µg/ml) in TZM-bl [15] was 0.04 µg/mL. It also gave an IC50 (µg/ml) in TZM-bl [16] of 0.003 µg/mL, an IC50 (µg/ml) in TZM-bl [17] of 0.014 µg/mL and an IC50 (µg/ml) in TZM-bl [18] of 8.95 µg/mL. The IC50 (µg/ml) in TZM-bl [19] was 0.1 µg/mL, the IC50 (µg/ml) in TZM-bl [20] was 0.07 µg/mL and the IC50 (µg/ml) in TZM-bl cells [21] was under 0.005 µg/mL. It also gave an IC50 (µg/ml) in TZM-bl [22] of 0.66 µg/mL, an IC50 (µg/ml) in TZM-bl [23] of 1.08 µg/mL and an IC50 (µg/ml) in TZM-bl [24] of 0.09 µg/mL. For the same substance, the IC50 (µg/ml) in TZM-bl [25] was 0.04 µg/mL, the IC50 (µg/ml) in TZM-bl [26] was 0.001 µg/mL and the IC50 (µg/ml) in TZM-bl [27] was 0.26 µg/mL. The IC50 (µg/ml) in TZM-bl [28] was 0.001 µg/mL, the IC50 (µg/ml) in TZM-bl cells [29] was under 0.005 µg/mL and the IC50 (µg/ml) in TZM-bl [30] was 0.002 µg/mL. For the same substance, the IC50 (µg/ml) in TZM-bl [31] was over 25 µg/mL, the IC50 (µg/ml) in TZM-bl [32] was over 25 µg/mL and the IC50 (µg/ml) in TZM-bl [33] was 0.015 µg/mL. It also gave an IC50 (µg/ml) in TZM-bl [34] of 0.005 µg/mL, an IC50 (µg/ml) in TZM-bl [35] of 0.01 µg/mL and an IC50 (µg/ml) in TZM-bl [36] of 24.2 µg/mL. The IC50 (µg/ml) in TZM-bl [37] was 0.003 µg/mL, the IC50 (µg/ml) in TZM-bl [38] was 0.008 µg/mL and the IC50 (µg/ml) in TZM-bl [39] was 0.003 µg/mL. It also gave an IC50 (µg/ml) in TZM-bl [40] of 0.001 µg/mL.
